Measurements as given in patent US20240101668A1 (WUGEN, published 2024).

Tests used:
[1] = biological target: T1, huCD33-G69-Fc recombinant protein (human, UniProt P20138 18-259); experiment: BLI;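 also: biolayer interferometry: scFvs captured from periplasmic extracts on anti-V5-loaded streptavidin biosensors, antigen association for 2 min, buffer dissociation for 5 min, 1:1 Langmuir fit giving off-rate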
T1 construct: extracellular domain; also called CD33 R69G
Procedure: Discovered scFvs were analyzed for binding to huCD33-R69-His or huCD33-G69-Fc recombinant proteins (for anti-CD33 scFvs; for CLL-1 scFvs, huCLL1-K244-Avi-Tev-His or huCLL1-Q244-Avi-Tev-His were used; for FLT3, huFLT3-T227-His or huFLT3-M227-Fc were used) using BLI on a ForteBio Octet HTX instrument. Streptavidin-coated biosensors were loaded with biotinylated anti-V5 tag monoclonal antibody for 5 min and were then quenched and blocked with 20 μM amine-PEG2-Biotin for 5 min. scFvs were captured on biosensors from scFv clone periplasmic extracts. huCD33 (or huCLL-1, or huFLT3) proteins were then associated with the captured scFvs for 2 minutes, followed by dissociation with buffer (1×HBST [10 mM HEPES pH 7.4, 150 mM NaCl, 0.05% Tween-20], 1 g/L BSA) for 5 minutes. […] Data was fitted with 1:1 Langmuir equation and off-rate values were reported.

[2] = biological target: T2, huCD33-G69 stably expressed on Jurkat cells (human, UniProt P20138 18-364); experiment: FACS on cells;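 also: fixed Jurkat lines probed with myc-tagged scFv periplasmic extracts, anti-myc PE flow cytometry, PE MFI fold binned − <2, + 2–10, ++ 10–30, +++ >30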
T2 construct: whole, on cells; >200,000 receptors per cell; also called CD33 Mutant; CD33 R69G
Procedure: (§1) Jurkat cells were engineered to stably express either the huCD33-R69 or huCD33-G69 variant at >200,000 receptors per cell. Parental, huCD33-R69, and huCD33-G69 Jurkat cell lines were stained with differing levels of CellTrace Violet Cell Proliferation Kit (ThermoFisher, cat. #C34557) to barcode each cell line. Barcoded Jurkat cell lines were fixed with paraformaldehyde and incubated with myc-labeled scFv periplasmic extracts and a secondary anti-myc PE-conjugated monoclonal antibody. Appropriate positive and negative controls were used. Stained cells were analyzed by flow cytometry (CytoFLEX, Beckman Coulter, Inc.) and binding was assessed by change in PE mean fluorescence intensity (MFI) of the barcoded cell populations.
(§2) Data is disclosed below in Table 16c, reporting FACS fold change over parental as (−), indicating <2 fold; (+), indicating 2-10 fold; (++), indicating 10-30 fold; and (+++), indicating >30 fold.

[3] = biological target: T3, huCD33-R69 stably expressed on Jurkat cells (human, UniProt P20138 18-364); experiment: FACS on cells;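 also: fixed Jurkat lines probed with myc-tagged scFv periplasmic extracts, anti-myc PE flow cytometry, PE MFI fold binned − <2, + 2–10, ++ 10–30, +++ >30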
T3 construct: whole, on cells; >200,000 receptors per cell; also called CD33 WT; CD33^ARG69
T3 sequence (P20138 18-364): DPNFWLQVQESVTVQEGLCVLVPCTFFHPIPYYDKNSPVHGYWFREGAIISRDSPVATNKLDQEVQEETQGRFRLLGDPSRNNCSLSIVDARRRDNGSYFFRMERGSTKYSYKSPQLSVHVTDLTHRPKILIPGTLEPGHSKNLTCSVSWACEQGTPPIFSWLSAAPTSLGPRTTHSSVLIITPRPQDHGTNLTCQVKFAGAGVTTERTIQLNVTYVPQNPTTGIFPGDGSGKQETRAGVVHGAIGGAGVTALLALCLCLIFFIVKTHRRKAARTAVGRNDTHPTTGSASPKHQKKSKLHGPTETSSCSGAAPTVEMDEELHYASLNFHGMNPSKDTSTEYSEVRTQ
Procedure: as §1, §2

T2 sequence (P20138 18-364 R69G): as the sequence (P20138 18-364) above, with R52G counted along it
T1 sequence (P20138 18-259 R69G): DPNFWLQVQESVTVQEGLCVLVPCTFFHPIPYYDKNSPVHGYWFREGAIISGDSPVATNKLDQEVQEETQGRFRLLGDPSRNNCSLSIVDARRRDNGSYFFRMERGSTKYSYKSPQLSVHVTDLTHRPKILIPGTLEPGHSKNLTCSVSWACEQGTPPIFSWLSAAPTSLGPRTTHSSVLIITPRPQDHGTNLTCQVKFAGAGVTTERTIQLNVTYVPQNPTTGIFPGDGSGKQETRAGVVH

| Binder | binding result [1] | FACS geometric mean fold change over Jurkat parental [2] [fold] | FACS geometric mean fold change over Jurkat parental [3] [fold] |
| --- | --- | --- | --- |
| Polypeptide No. 130 (scFv, V domains shown, scFv) VH: QVQLVQSGAEVKKPGASVKVSCKASGGTFSNYAISWVRQAPGQGLEWMAWMNPNSGNTGYAQKFQGRVTMTRDTSTSTVYMELSSLRSEDTAVYYCARDGFIGFGELFSAFDIWGQGTMVTVSS VL: DIQMTQSPSSLSASVGDRVTITCRASQSIGTWLAWYQQKPGKAPKLLIYGATRLLSGVPSRFSGSGSGTDFTLTISSLQPEDFATYYCQQSYSTPPTFGQGTKLEIKR | binds | 10 to 30 | 10 to 30 |
| Polypeptide No. 125 (scFv, V domains shown, scFv) VH: QVQLVQSGAEVKKPGASVKVSCKASGYSFTTYDIHWVRQAPGQGLEWMGWMNPNSGNTGYAQKFQGRVTMTRDTSTSTVYMELSSLRSEDTAVYYCATDHWVLGGFDYWGQGTLVTVSS VL: DIQMTQSPSSLSASVGDRVTITCQASQDISNYLNWYQQKPGKAPKLLIYAASTLQSGVPSRFSGSGSGTDFTLTISSLQPEDFATYYCQQYSYLPVTFGQGTKLEIKR | binds | > 30 | > 30 |
| Polypeptide No. 133 (scFv, V domains shown, scFv) VH: EVQLLESGGGLVQPGGSLRLSCAASGFTFSSSWMHWVRQAPGKGLEWVSAISSSGDATYYADSVKGRFTISRDNSKNTLYLQMNSLRAEDTAVYYCAKFSDGGAGDSDYWGQGTLVTVSS VL: DIQMTQSPSSLSASVGDRVTITCRASQGISSYLAWYQQKPGKAPKLLIYTASSLQSGVPSRFSGSGSGTDFTLTISSLQPEDFATYYCQQYDNLPITFGQGTRLEIKR | binds | 2 to 10 | 2 to 10 |
| Polypeptide No. 131 (scFv, V domains shown, scFv) VH: QVQLVQSGAEVKKPGASVKVSCKASGGTFSNYAINWVRQAPGQGLEWMGWINPNSGGTDSAQKFQGRVTMTRDTSTSTVYMELSSLRSEDTAVYYCARDSSLALSYGGNSEYYYGMDVWGQGTTVTVSS VL: DIQMTQSPSSLSASVGDRVTITCQASQDISDHLNWYQQKPGKAPKLLIYGASTLQSGVPSRFSGSGSGTDFTLTISSLQPEDFATYYCQQAYSFPWTFGQGTKLEIKR | binds | 10 to 30 | > 30 |
| Polypeptide No. 124 (scFv, V domains shown, scFv) VH: EVQLVESGGGLVKPGGSLRLSCAASGFTFSSYWMHWVRQAPGKGLEWVAVIWYDGSNKYYADSVKGRFTISRDDSKNTLYLQMNSLKTEDTAVYYCVRDGARSGMDVWGQGTTVTVSS VL: EIVMTQSPATLSVSPGERATLSCRASQSVSTYVAWYQQKPGQAPRLLIYGASTRATGIPARFSGSGSGTEFTLTISSLQSEDFAVYYCQQYYDTPLTFGGGTKVEIKR | binds | > 30 | > 30 |
| Polypeptide No. 132 (scFv, V domains shown, scFv) VH: EVQLLESGGGLVQPGGSLRLSCAASGFTFNNYGMHWVRQAPGKGLEWVSAISGSGGSTYYADSVKGRFTISRDNSKNTLYLQMNSLRAEDTAVYYCAREYMQQPHGGMDVWGQGTTVTVSS VL: EIVMTQSPATLSVSPGERATLSCRASQSVNSYLAWYQQKPGQAPRLLIYGASTRATGIPARFSGSGSGTEFTLTISSLQSEDFAVYYCQQYGSSPLSFGGGTKVEIKR | binds | 10 to 30 | 2 to 10 |
| Polypeptide No. 135 (scFv, V domains shown, scFv) VH: QVQLVQSGAEVKKPGASVKVSCKASGYSFTTYGITWVRQAPGQGLEWMGWINPNSGNAGYAQKFQGRVTMTRDTSTSTVYMELSSLRSEDTAVYYCASDLAGYSSGYFDLWGRGTLVTVSS VL: not shown | binds | > 30 | 10 to 30 |
| Polypeptide No. 127 (scFv, V domains shown, scFv) VH: QVQLVQSGAEVKKPGASVKVSCKASGYTFTNHHMHWVRQAPGQGLEWMGMINPSGGSTSYAQKFQGRVTMTRDTSTSTVYMELSSLRSEDTAVYYCARGRPVDIVATYYFDYWGQGTLVTVSS VL: DIQMTQSPSSLSASVGDRVTITCQASQDIRNFLNWYQQKPGKAPKLLIYGASTLHSGVPSRFSGSGSGTDFTLTISSLQPEDFATYYCQQSYSTPLTFGGGTKVEIKR | binds | 10 to 30 | 10 to 30 |
| Polypeptide No. 122 (scFv, V domains shown, scFv) VH: QVQLVQSGAEVKKPGASVKVSCKASGYTFTDYWLHWVRQAPGQGLEWMGTINPSGGSTSYSHKFQGRVTMTRDTSTSTVYMELSSLRSEDTAVYYCAKEEEGFWSGYAFDYWGQGTLVTVSS VL: not shown | binds | > 30 | 10 to 30 |
| Polypeptide No. 120 (scFv, V domains shown, scFv) VH: QVQLVQSGAEVKKPGASVKVSCKASGYTFTTYYMHWVRQAPGQGLEWMGWMNPNSGNTGYAQKFQGRVTMTRDTSTSTVYMELSSLRSEDTAVYYCARGHKVDSGYDPYGMDVWGQGTTVTVSS VL: DIQMTQSPSSLSASVGDRVTITCRASQSIGTYLHWYQQKPGKAPKLLIYAISTLQNGVPSRFSGSGSGTDFTLTISSLQPEDFATYYCQQSYSPPLTFGGGTKVEIKR | binds | > 30 | > 30 |
| Polypeptide No. 126 (scFv, V domains shown, scFv) VH: EVQLLESGGGLVQPGGSLRLSCAASGFTFTTYDMHWVRQAPGKGLEWVAGINWNSVIIDYADSVKGRFTISRDNSKNTLYLQMNSLRAEDTAVYYCAKDLLYYYDSIGAFDIWGQGTMVTVSS VL: DIQMTQSPSSLSASVGDRVTITCRASQSISTWLAWYQQKPGKAPKLLIYAASSLQSGVPSRFSGSGSGTDFTLTISSLQPEDFATYYCQQSDTLPLTFGGGTKVEIKR | binds | 10 to 30 | > 30 |
| Polypeptide No. 137 (scFv, V domains shown, scFv) VH: QVQLVQSGAEVKKPGASVKVSCKASGYTFTDYYIHWVRQAPGQGLEWMGMVNPSGGSANYAQKFQGRVTMTRDTSTSTVYMELSSLRSEDTAVYYCAKDSAWQEPYYFDYWGQGTLVTVSS VL: DIQMTQSPSSLSASVGDRVTITCRASQGISSYLAWYQQKPGKAPKLLIYDASNLDTGVPSRFSGSGSGTDFTLTISSLQPEDFATYYCQQSYSTPLTFGGGTKVEIKR | binds | > 30 | > 30 |
| Polypeptide No. 128 (scFv, V domains shown, scFv) VH: QVQLVQSGAEVKKPGASVKVSCKASGYTFTNYYIHWVRQAPGQGLEWLGWTNPINGDTGSAQKFQGRVTMTRDTSTSTVYMELSSLRSEDTAVYYCAKEGQLAWADYYYYMDVWGKGTTVTVSS VL: DIQMTQSPSSLSASVGDRVTITCRASQGISSALAWYQQKPGKAPKLLIYAASSLQSGVPSRFSGSGSGTDFTLTISSLQPEDFATYYCQQSYSTPLTFGGGTKVEIKR | binds | 10 to 30 | 10 to 30 |
| Polypeptide No. 136 (scFv, V domains shown, scFv) VH: QVQLVQSGAEVKKPGASVKVSCKASGDTLTNHFVHWVRQAPGQGLEWMGWMNPNSGNTGYAQKFQGRVTMTRDTSTSTVYMELSSLRSEDTAVYYCARDPQMGAVAGGFDYWGQGTLVTVSS VL: DIQMTQSPSSLSASVGDRVTITCRASQRIGNWLAWYQQKPGKAPKLLIYAASSLQSGVPSRFSGSGSGTDFTLTISSLQPEDFATYYCQQSYSPPLTFGPGTKVDIKR | binds | 10 to 30 | 10 to 30 |
| Polypeptide No. 134 (scFv, V domains shown, scFv) VH: QVQLVQSGAEVKKPGASVKVSCKASGYTFDSYLLHWVRQAPGQGLEWMGMINPSGAGTTYAQKFQGRVTMTRDTSTSTVYMELSSLRSEDTAVYYCAKEGSIAAGYYFDSWGQGTLVTVSS VL: DIQMTQSPSSLSASVGDRVTITCRASQSIDSWLAWYQQKPGKAPKLLIYAASSLQSGVPSRFSGSGSGTDFTLTISSLQPEDFATYYCQQSYTTPITFGGGTKVEIKR | binds | > 30 | > 30 |
| Polypeptide No. 123 (scFv, V domains shown, scFv) VH: EVQLLESGGGLVQPGGSLRLSCAASGFILGNAWMHWVRQAPGKGLEWVASVSGDGSDENYADSVKGRFTISRDNSKNTLYLQMNSLRAEDTAVYYCARDTHDYGDYAPFDYWGQGTLVTVSS VL: DIQMTQSPSSLSASVGDRVTITCQASQDINNYLNWYQQKPGKAPKLLIYAASNLQSGVPSRFSGSGSGTDFTLTISSLQPEDFATYYCQQTYSFPLTFGGGTKVEIKR | binds | > 30 | > 30 |
| Polypeptide No. 129 (scFv, V domains shown, scFv) VH: EVQLVESGGGLVKPGGSLRLSCAASGFSLRNYWMHWVRQAPGKGLEWVSGISGSGGSTYYADSVKGRFTISRDDSKNTLYLQMNSLKTEDTAVYYCARDYTGVVDYWGQGTLVTVSS VL: not shown | binds | 10 to 30 | 10 to 30 |
| Polypeptide No. 121 (scFv, V domains shown, scFv) VH: QVQLVQSGAEVKKPGASVKVSCKASGDSFTDYYIHWVRQAPGQGLEWMGWMNPNSGNTGYAQQFQGRVTMTRDTSTSTVYMELSSLRSEDTAVYYCARDREYSSSSRYFDLWGRGTLVTVSS VL: DIQMTQSPSSLSASVGDRVTITCRASQNIGNWLAWYQQKPGKAPKLLIYAASTLQSGVPSRFSGSGSGTDFTLTISSLQPEDFATYYCQQSYNSITFGPGTKVDIKR | binds | 10 to 30 | 10 to 30 |
